Test [1] addresses T1, Full length human PD1 (huPD1) on cells (human, UniProt Q15116 25-288).
T1 construct: on T cells of human donors in the MLR and CMV assays (functional); also called PD-1 on Jurkat cells
Nature of the test: flow cytometry, PHA-stimulated Jurkat cells.
Method: Jurkat cells were stimulated overnight with 20 ng/ml of PHA, harvested, washed, and checked for viability. The cells were then incubated at 6-10° C. for 45-60 minutes with various concentrations of test antibodies, washed and incubated at 6-10° C. for 45-60 minutes with FITC-labeled goat anti-human IgG. The cells were washed and fixed with BD Cytofix, refrigerated overnight and analyzed on a MACSQuant flow cytometer. The percentage of PD-1 positive cells at each antibody concentration was plotted vs log of the antibody concentration and EC₅₀ values were generated in Prism.

The target of test [2] is T2, Extracellular domain of human PD1 (huPD1-ECD) (human, UniProt Q15116 25-169, biotinylated in the ligand inhibition assay (sites not given)).
T2 construct: Expressed with a hexahistidine tag or as Fc fusion; also called biotinylated PD-1
T2 sequence (Q15116 25-169 limits assumed): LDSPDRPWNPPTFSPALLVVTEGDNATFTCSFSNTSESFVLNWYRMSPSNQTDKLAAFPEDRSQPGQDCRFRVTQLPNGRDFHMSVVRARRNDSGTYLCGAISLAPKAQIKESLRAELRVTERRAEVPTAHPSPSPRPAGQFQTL
In words: SPR ProteOn, captured mAb, huPD1-ECD analyte.

Test [3] deals with T2, Extracellular domain of human PD1 …. Nature of the test: MSD ligand inhibition, competitor coated cynoPDL1-ECD.
Method: The ligand inhibition assay design was MSD (Mescoscale Discovery) based. A MSD plate was directly coated with ligand (cynoPDL1-ECD, huPDL1-ECD or huPDL2-ECD) and incubated overnight at 4° C. The following day, the coating solution was removed and the plate was blocked. […] Depending on the panel of antibodies to be tested, the antibodies were tested as titrations or at a fixed concentration. […] The mAbs that were positive for inhibition of ligand binding at one concentration were also tested in dose responses for inhibition of various PD-1 ligands.
Select Fabs were cloned as IgG2sigma isotype and characterized for their Jurkat cell binding and cynomolgus PD-L1 ligand inhibition at concentrations 1 μg/ml and 10 μg/ml.
For test [4], the target named is T3, Extracellular domain of cyno PD1 (cPD1-ECD) (Macaca fascicularis (cynomolgus)).
T3 construct: Expressed with a hexahistidine tag or as Fc fusion; also called cynoPD1-ECD; cynoPD-1-ECD
T3 chain: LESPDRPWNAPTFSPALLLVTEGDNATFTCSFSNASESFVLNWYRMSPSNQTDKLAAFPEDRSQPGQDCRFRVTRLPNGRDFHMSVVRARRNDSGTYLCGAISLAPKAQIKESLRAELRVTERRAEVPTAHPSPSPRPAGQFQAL
In words: SPR ProteOn, captured mAb, cynoPD1-ECD analyte.
Method: (§1) Affinity measurements using Surface Plasmon Resonance (SPR) were performed using a ProteOn XPR36 system. A biosensor surface was prepared by coupling a mixture of anti-IgG Fc modified alginate polymer layer surface of a GLC chip using the manufacturer instructions for amine-coupling chemistry. […] The collected data were processed and fitted to a Langmuir 1:1 binding model. The result for each mAb was reported in the format of kₒₙ (On-rate), koff (Off-rate) and KD (equilibrium dissociation constant).
(§2) STDEV were calculated for 3 or more replicates generated for human and cyno proteins. If less than 3 replicates were calculated, RANGE was indicated. RANGE is defined as the low and high values for the replicates tested. For samples in the Table 10 or Table 11 without value indicated in RANGE or STDEV, only one experiment was performed.

Test [5] concerns the target T3, Extracellular domain of cyno PD1 …. Nature of the test: SPR ProteOn, cynoPD1-ECD; RANGE high replicate.
For test [6] the target is unchanged. Nature of the test: SPR ProteOn, cynoPD1-ECD; RANGE low replicate.
Method: as §1, §2
For test [7] the target is unchanged. Nature of the test: SPR ProteOn, cynoPD1-ECD; RANGE high replicate; RANGE high replicate.
Method: as §1, §2
For test [8] the target is unchanged. Nature of the test: SPR ProteOn, captured mAb, cynoPD1-ECD analyte.
Method: as §1
STDEV were calculated for 3 or more replicates generated for human and cyno proteins. If less than 3 replicates were calculated, RANGE is indicated. RANGE is defined as the low and high values for the replicates tested. For samples without RANGE or STDEV, only one experiment was performed
Test [9] concerns the target T2, Extracellular domain of human PD1 …. In words: SPR ProteOn, captured mAb, huPD1-ECD analyte. This is another data set of the same source.

Experimental findings from patent US20210277110A1 (Janssen / Centocor, published 2021) are described below.

Read-outs that look alike come from different tables or passages of the source.

T1 sequence (Q15116 25-288 limits assumed): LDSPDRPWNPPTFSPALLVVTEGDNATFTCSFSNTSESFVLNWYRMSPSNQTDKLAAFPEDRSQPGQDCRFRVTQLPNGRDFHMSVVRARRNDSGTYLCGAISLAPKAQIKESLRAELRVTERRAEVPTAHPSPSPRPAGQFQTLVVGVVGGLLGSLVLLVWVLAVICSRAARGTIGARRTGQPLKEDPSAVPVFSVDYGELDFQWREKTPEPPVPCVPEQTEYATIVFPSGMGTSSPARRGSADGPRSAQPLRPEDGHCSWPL

B1: PD1B114 (antibody, human IgG2, kappa, V domains shown)
VH: QVQLVQSGAEVKKPGSSVKVSCKASGGTFSSYAISWVRQAPGQGLEWMGGIIPIFGTANYAQKFQGRVTITADESTSTAYMELSSLRSEDTAVYYCARPGLAAAYDTGNLDYWGQGTLVTVSS
VL: EIVLTQSPATLSLSPGERATLSCRASQSVSSYLAWYQQKPGQAPRLLIYDASNRATGIPARFSGSGSGTDFTLTISSLEPEDFAVYYCQQRSNWPLTFGQGTKVEIKR
notes: IgG2sigma/kappa; also called PD1H24/PH9L3
In turn, B1 yielded an EC50 in test [1] of 0.47 µg/mL. Also, in test [2], the Kd was 54.1 nM, the koff worked out at 0.0279 s⁻¹ and the kon worked out at 517000 M⁻¹ s⁻¹. Also, in test [3], the “percentage ligand not blocked at 1 µg/ml” value worked out at 8% and the “percentage ligand not blocked at 10 µg/ml” value worked out at 13%. In [4], this molecule had a Kd of 81.5 nM, an off-rate constant (koff) of 0.0239 s⁻¹ and a kon of 294000 M⁻¹ s⁻¹.

B2: PD1B183 (antibody, human IgG2, kappa, V domains shown)
VH: QVQLVQSGAEVKKPGSSVKVSCKASGGTFSSYAISWVRQAPGQGLEWMGGIIPIFGTANYAQKFQGRVTITADESTSTAYMELSSLRSEDTAVYYCARPGLAAAYDTGSLDYWGQGTLVTVSS
VL: EIVLTQSPATLSLSPGERATLSCRASQSVSSYLAWYQQKPGQAPRLLIKDASNRATGIPARFSGSGSGTDFTLTISSLEPEDFAVYYCQQRGYWPLTFGQGTKVEIKR
notes: IgG2sigma/kappa; VH 43, VL 54; also called PD1H3/PD1L109
The molecule B2 displayed an EC50 in [1] of 0.08 µg/mL. The Kd in test [5] came out at 28.8 nM; in test [2], 16 nM; in test [6] it was 23.9 nM; in test [4], 26.3 nM. Moreover, the koff in test [2] came to 0.00844 s⁻¹; in [6] it was 0.00801 s⁻¹; in [7], 0.00876 s⁻¹; in test [4], 0.00839 s⁻¹. The kon in [2] turned out to be 527000 M⁻¹ s⁻¹; in [6] it was 304000 M⁻¹ s⁻¹; in test [7], 337000 M⁻¹ s⁻¹; in test [4], 320000 M⁻¹ s⁻¹. In addition, the “percentage ligand not blocked at 1 µg/ml” value in [3] worked out at 5%. Also, the “percentage ligand not blocked at 10 µg/ml” value in test [3] amounted to 5%.

B3: PD1B160 (antibody, human IgG2, kappa, V domains shown)
VH: QVQLVQSGAEVKKPGSSVKVSCKASGGTFSSYAISWVRQAPGQGLEWMGGIIPIFDTANYAQKFQGRVTITADESTSTAYMELSSLRSEDTAVYYCARPGLAAAYDTGNLDYWGQGTLVTVSS
VL: EIVLTQSPATLSLSPGERATLSCRASQSVDSYLAWYQQKPGQAPRLLIKDASDRATGIPARFSGSGSGTDFTLTISSLEPEDFAVYYCQQRGNWPLTFGQGTKVEIKR
notes: IgG2sigma/kappa; VH 42, VL 51; also called PD1H131/PD1L101
In test [1], B3 gave an EC50 of 0.08 µg/mL. In addition, in test [5], the affinity, expressed as Kd, was 5.3 nM; the koff was found to be 0.00168 s⁻¹; the kon turned out to be 317000 M⁻¹ s⁻¹. In test [2], this molecule showed a Kd of 6.87 nM, a koff of 0.00371 s⁻¹ and a kon of 540000 M⁻¹ s⁻¹. In test [3], the “percentage ligand not blocked at 1 µg/ml” value worked out at 4% and the “percentage ligand not blocked at 10 µg/ml” value is 3%. In [6], this molecule showed a Kd of 5.1 nM, a koff of 0.00163 s⁻¹ and a kon of 316000 M⁻¹ s⁻¹. In test [4], the Kd amounted to 5.23 nM, the off-rate constant (koff) was 0.00166 s⁻¹ and the kon was determined as 317000 M⁻¹ s⁻¹.

B4: PD1B177 (antibody, V domains shown)
VH: QVQLVQSGAEVKKPGSSVKVSCKASGGTFSDYVISWVRQAPGQGLEWMGGIIPIYGTANYAQKFQGRVTITADESTSTAYMELSSLRSEDTAVYYCARGTLDRTGHLDYWGQGTLVTVSS
VL: EIVLTQSPATLSLSPGERATLSCRASQSVSSYLAWYQQKPGQAPRLLIYDASNRATGIPARFSGSGSGTDFTLTISSLEPEDFAVYYCQQRSNWPLTFGQGTKVEIK
notes: Tested as IgG2sigma; also called PD1H164/PH9L3
For B4, in test [1], the EC50 was found to be 0.05 µg/mL. Further, the Kd in [5] was 6.9 nM; in [2], 5 nM; in test [6], 6.1 nM; in [4], 6.47 nM. The off-rate constant (koff) in test [2] was 0.00257 s⁻¹; in [6], 0.00184 s⁻¹; in [7], 0.00193 s⁻¹; in [4] it was 0.00189 s⁻¹. Moreover, the kon in [2] was determined as 515000 M⁻¹ s⁻¹; in test [6], 280000 M⁻¹ s⁻¹; in test [7], 304000 M⁻¹ s⁻¹; in test [4], 292000 M⁻¹ s⁻¹. Besides, the “percentage ligand not blocked at 1 µg/ml” value in [3] worked out at 7%. The “percentage ligand not blocked at 10 µg/ml” value in test [3] was determined as 8%.

B5: PD1B198 (antibody, V domains shown)
VH: QVQLVQSGAEVKKPGSSVKVSCKASGGTFKSYVIHWVRQAPGQGLEWMGGIIPIFGTANYAQKFQGRVTITADESTSTAYMELSSLRSEDTAVYYCARGYVRATGMLDYWGQGTLVTVSS
VL: EIVLTQSPATLSLSPGERATLSCRASQSVSSYLAWYQQKPGQAPRLLIEDASSRATGIPARFSGSGSGTDFTLTISSLEPEDFAVYYCQQRAEWPLTFGQGTKVEIK
notes: also called PD1H163/PD1L187
In test [8], B5 showed a dissociation constant Kd of 11.2 nM, a koff of 0.00416 s⁻¹ and an on-rate constant (kon) of 372000 M⁻¹ s⁻¹. Moreover, in test [9], the affinity, expressed as Kd, was 10.4 nM; the dissociation rate constant (koff) turned out to be 0.00934 s⁻¹; the kon came out at 895000 M⁻¹ s⁻¹.

B6: PD1B194 (antibody, V domains shown)
VH: QVQLVQSGAEVKKPGSSVKVSCKASGGTFSSYAISWVRQAPGQGLEWMGGIIPIFDTANYAQKFQGRVTITADESTSTAYMELSSLRSEDTAVYYCARPGLAAAYDTGSLDYWGQGTLVTVSS
VL: EIVLTQSPATLSLSPGERATLSCRASQSVRSYLAWYQQKPGQAPRLLIYDASYRATGIPARFSGSGSGTDFTLTISSLEPEDFAVYYCQQRDYWPLTFGQGTKVEIK
notes: also called PD1H170/PD1L71
In test [8], B6 displayed a Kd of 0.6 nM, a koff of 0.000193 s⁻¹ and a kon of 322000 M⁻¹ s⁻¹. In test [9], this molecule had a Kd of 1.07 nM, a koff of 0.00096 s⁻¹ and a kon of 897000 M⁻¹ s⁻¹.

B7: PD1B197 (antibody, V domains shown)
VH: QVQLVQSGAEVKKPGSSVKVSCKASGGTFKSYVIHWVRQAPGQGLEWMGGIIPIFGTANYAQKFQGRVTITADESTSTAYMELSSLRSEDTAVYYCARGYVRATGMLDYWGQGTLVTVSS
VL: EIVLTQSPATLSLSPGERATLSCRASQSVSNYLAWYQQKPGQAPRLLIYDASNRATGIPARFSGSGSGTDFTLTISSLEPEDFAVYYCQQRAYWPLTFGQGTKVEIK
notes: also called PD1H163/PD1L185
For B7, in test [8], the Kd was determined as 4.6 nM, the koff was found to be 0.00126 s⁻¹ and the on-rate constant (kon) turned out to be 275000 M⁻¹ s⁻¹. In addition, in test [9], the affinity, expressed as Kd, was 4.9 nM; the koff was 0.00324 s⁻¹; the kon was found to be 658000 M⁻¹ s⁻¹.

B8: PD1B187 (antibody, V domains shown)
VH: QVQLVQSGAEVKKPGSSVKVSCKASGGTFSSYAISWVRQAPGQGLEWMGGIIPIFGTANYAQKFQGRVTITADESTSTAYMELSSLRSEDTAVYYCARPGLAAAYDTGSLDYWGQGTLVTVSS
VL: EIVLTQSPATLSLSPGERATLSCRASQSVRSYLAWYQQKPGQAPRLLIYDASNRATGIPARFSGSGSGTDFTLTISSLEPEDFAVYYCQQRNYWPLTFGQGTKVEIK
notes: Tested as IgG2sigma; also called PD1H3/PD1L148
B8 registered an EC50 in test [1] of 0.09 µg/mL. Further, the Kd in [5] was 8.4 nM; in test [2], 5.2 nM; in [6], 3.5 nM; in test [4] it was 5.32 nM. Also, the koff in test [2] turned out to be 0.00278 s⁻¹; in test [6], 0.00128 s⁻¹; in test [7], 0.00185 s⁻¹; in [4], 0.00157 s⁻¹. In addition, the kon in test [2] worked out at 535000 M⁻¹ s⁻¹; in test [6], 220000 M⁻¹ s⁻¹; in test [7], 370000 M⁻¹ s⁻¹; in [4] it was 294000 M⁻¹ s⁻¹. In addition, the “percentage ligand not blocked at 1 µg/ml” value in test [3] was determined as 7%. Moreover, the “percentage ligand not blocked at 10 µg/ml” value in test [3] worked out at 5%.
